{
  "source": "paper PMC6232973",
  "target": "CC1-CC2-SUN fragment of mouse SUN2 (SUN2 residues 410-731), wild type (mouse)",
  "assay": "SEC",
  "data": [
    {"substance": "CC1-CC2-SUN fragment of mouse SUN2 (SUN2 residues 410-731), wild type (domain or fragment)", "values": [
      {"measurement": "stoichiometry N", "result": 3}
    ]}
  ]
}
